Reference: patent publication US20140302029A1 (SAMSUNG ELECTRONICS, published 2014)

Key:
[1] = molecular target: T1, EGFR-Fc (#344-ER, R&D Systems) (UniProt P00533 25-645); test: SPR, Biacore T100; ME-03S captured on human Fab binder, EGFR-Fc injected
T1 construct: Bought reagent; not shown: Fc part of the bought fusion
Protocol: (§1) In addition, the affinities of the prepared anti-c-Met/anti-EGFR bispecific antibody toward two types of antigens (c-Met/EGFR) were each identified using Biacore T100 (GE). A human Fab binder (GE Healthcare) was immobilized at the surface of a CM5 chip (#BR-1005-30, GE) according to the manufacturer's specifications. […] 10 mM Glycine-HCl (pH 1.5) solution was injected thereto to regenerate the surface. In order to measure affinity, the data obtained from this experiment was fitted using BIAevaluation software (GE Healthcare, Biacore T100 evaluation software).

[2] = molecular target: T2, c-Met-Fc (#358-MT/CF, R&D Systems) (human, UniProt P08581 25-932); test: SPR, Biacore T100; ME-03S captured on human Fab binder, c-Met-Fc injected
T2 construct: also called human c-Met/Fc fusion protein (R&D Systems); not shown: Fc part of the bought fusion
Protocol: as §1

T2 sequence (P08581 25-932 limits assumed): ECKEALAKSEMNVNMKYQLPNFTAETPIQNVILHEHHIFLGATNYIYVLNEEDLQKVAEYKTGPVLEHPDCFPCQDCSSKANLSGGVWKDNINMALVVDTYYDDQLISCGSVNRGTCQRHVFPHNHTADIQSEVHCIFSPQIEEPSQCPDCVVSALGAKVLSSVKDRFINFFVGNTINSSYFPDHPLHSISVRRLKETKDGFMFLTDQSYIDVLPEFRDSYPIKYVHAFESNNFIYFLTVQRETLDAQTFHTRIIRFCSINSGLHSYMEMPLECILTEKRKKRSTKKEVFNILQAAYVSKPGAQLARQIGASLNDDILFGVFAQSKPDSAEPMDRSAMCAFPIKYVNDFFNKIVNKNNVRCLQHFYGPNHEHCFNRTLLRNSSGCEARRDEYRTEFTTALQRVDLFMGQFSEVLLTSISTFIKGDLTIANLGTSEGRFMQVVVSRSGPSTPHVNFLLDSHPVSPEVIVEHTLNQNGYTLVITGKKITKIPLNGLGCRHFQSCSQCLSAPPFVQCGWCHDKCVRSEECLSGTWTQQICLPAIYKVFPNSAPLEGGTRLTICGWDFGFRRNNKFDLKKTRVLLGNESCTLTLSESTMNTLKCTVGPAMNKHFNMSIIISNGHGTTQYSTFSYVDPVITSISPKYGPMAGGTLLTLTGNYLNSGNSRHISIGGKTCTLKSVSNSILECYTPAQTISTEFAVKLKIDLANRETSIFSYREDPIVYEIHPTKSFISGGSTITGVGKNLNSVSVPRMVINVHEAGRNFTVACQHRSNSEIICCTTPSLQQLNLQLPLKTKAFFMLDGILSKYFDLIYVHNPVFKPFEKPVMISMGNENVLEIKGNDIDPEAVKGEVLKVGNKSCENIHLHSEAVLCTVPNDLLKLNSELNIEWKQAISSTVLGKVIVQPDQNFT

Kd [1]: 0.12 nM
koff [1]: 2.7e-05 s⁻¹
kon [1]: 240000 M⁻¹ s⁻¹
Kd [2]: 0.14 nM
koff [2]: 9.3e-05 s⁻¹
kon [2]: 660000 M⁻¹ s⁻¹
B1: anti-c-Met/anti-EGFR bispecific antibody ME-03S (bispecific antibody)
heavy: EVQLVESGGGLVQPGGSLRLSCAASGFTFTDYYMSWVRQAPGKGLEWLGFIRNKANGYTTEYSASVKGRFTISRDNSKNTLYLQMNSLRAEDTAVYYCARDNWFAYWGQGTLVTVSSASTKGPSVFPLAPCSRSTSESTAALGCLVKDYFPEPVTVSWNSGALTSGVHTFPAVLQSSGLYSLSSVVTVPSSNFGTQTYTCNVDHKPSNTKVDKTVERKCCVECPPCPAPPVAGPSVFLFPPKPKDTLMISRTPEVTCVVVDVSHEDPEVQFNWYVDGVEVHNAKTKPREEQFNSTFRVVSVLTVVHQDWLNGKEYKCKVSNKGLPAPIEKTISKTKGQPREPQVYTLPPSREEMTKNQVSLTCLVKGFYPSDIAVEWESNGQPENNYKTTPPMLDSDGSFFLYSKLTVDKSRWQQGNVFSCSVMHEALHNHYTQKSLSLSPGKGGGGSGGGGSQVQLVQSGAEVKKPGSSVKVSCKASGFTFTDYKIHWVRQAPGQCLEWMGYINPNSGYSTYASKFQGRVTITADKSTSTAYMELSSLRSEDTAVYYCARLSPGGYYVMDAWGQGTTVTVSSGGGGSGGGGSGGGGSDIQMTQSPSSLSASVGDRVTITCRASQGINNYLNWYQQKPGKAPKLLIYNTNNLQTGVPSRFSGSGSGTEFTLTISSLQPEDEATYYCLQHNSFPTFGQCTKLEIKRT
light: DIQMTQSPSSLSASVGDRVTITCKSSQSLLASGNQNNYLAWYQQKPGKAPKMLIIWASTRVSGVPSRFSGSGSGTDFTLTISSLQPEDFATYYCQQSYSRPYTFGQGTKVEIKRTVAAPSVFIFPPSDEQLKSGTASVVCLLNNFYPREAKVQWKVDNALQSGNSQESVTEQDSKDSTYSLSSTLTLSKADYEKHKVYACEVTHQGLSSPVTKSFNRGEC
